Tests used:
[1] = target: E. coli FtsZ, purified (GTP-polymerized in the assays) (E. coli) (UniProt P0A9A6); assay: co-sedimentation; co-sedimentation with GTP-polymerized FtsZ carried out similarly to Fig 2 panel A; data fitted with Hill model y = x^n/(Kd+x^n)
[2] = target: the molecule itself; assay: 90° angle light scattering; FtsZ (12 μM) alone or with MBP-ABDOM (12 μM) or MBP in 50 mM PIPES pH 6.0, 1 mM EDTA, 5 mM MgCl2, 30 °C; polymerization induced by 1 mM GTP

With “MBP-ABDOM (ABDOM of MscS with N-terminally fused maltose binding protein) (from UniProt P0C0S1 175-265) (domain or fragment)” the Kd [1] was 5.3 µM.

Molecule “MBP-ABDOM-K258A/R259A (from UniProt P0C0S1 175-265) (domain or fragment)” has a Kd [1] of 14.6 µM.

B1: E. coli FtsZ, purified (GTP-polymerized in the assays) (natural protein, UniProt P0A9A6 1-383, looked up)
chain: MFEPMELTNDAVIKVIGVGGGGGNAVEHMVRERIEGVEFFAVNTDAQALRKTAVGQTIQIGSGITKGLGAGANPEVGRNAADEDRDALRAALEGADMVFIAAGMGGGTGTGAAPVVAEVAKDLGILTVAVVTKPFNFEGKKRMAFAEQGITELSKHVDSLITIPNDKLLKVLGRGISLLDAFGAANDVLKGAVQGIAELITRPGLMNVDFADVRTVMSEMGYAMMGSGVASGEDRAEEAAEMAISSPLLEDIDLSGARGVLVNITAGFDLRLDEFETVGNTIRAFASDNATVVIGTSLDPDMNDELRVTVVATGIGMDKRPEITLVTNKQVQQPVMDRYQQHGMAPLTQEQKPVAKVVNDNAPQTAKEPDYLDIPAFLRKQAD
notes: cell division protein FtsZ, E. coli, from pET11-ftsZ (gift of H. P. Erickson); also called polymerized FtsZ; assembled FtsZ; source: E. coli BL21(DE3) carrying pET11-FtsZ, purified by GTP-induced precipitation (four times)
B1: binds [2].

Reference: PMC4440785, “Cytoplasmic Domain of MscS Interacts with Cell Division Protein FtsZ: A Possible Non-Channel Function of the Mechanosensitive Channel in Escherichia Coli” (PLoS ONE, 2015)
